Assay results: US11530263B2, “IL-18 binding protein (IL-18BP) in inflammatory diseases” (AB2 BIO SA, priority 2013, dated 2022)
Like-named read-outs stand apart in the source and are kept apart here.

How the values were obtained:
IL-18 [1] = biological target: T1, IL-18 (Homo sapiens, UniProt Q14116); assay: KD calculation by titration with free IL-18 ELISA (IL-18BP capture); format: binding; details: read-out: KD between human IL-18 and IL-18BP by titration
T1 sequence (Q14116 37-193): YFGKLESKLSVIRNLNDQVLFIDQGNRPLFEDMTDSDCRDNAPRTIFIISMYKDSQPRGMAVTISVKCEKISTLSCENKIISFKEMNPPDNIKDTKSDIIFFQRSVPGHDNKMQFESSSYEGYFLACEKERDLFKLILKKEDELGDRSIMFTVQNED
Experimental: Microplate wells are coated with an appropriate volume phosphate buffer saline solution containing recombinant human IL-18BP. Plates are incubated for a period of time at 4° C. and then stabilized with a blocking buffer containing bovine serum albumin or other appropriate blocking agents. Once the reaction is finished, microplates are sealed and stored at 4° C. until used for detection of free IL-18. Microplates can also be dried in a stabilizing solution allowing storage at room temperature and then be reconstituted by hydration when needed for assay.
As an example, for a final reaction volume of 100 μl, dispense first 80 μl of biotin/antibody conjugate. Samples or biological fluids containing free IL-18 are tested with the IL-18BP coated microplates. After that, 20 μl sample volume containing biological fluid or standard is dispensed per microplate well. Non-diluted or diluted biological fluid can be but is not restricted to serum, urine, tear, saliva, bile, sweat, exhalation or expiration, sputum, bronchoalveolar fluid, sebum, cellular, gland, mucosa or tissue secretion, biopsy, homogenized tissue. […] The resulting reactions are then monitored with a microplate reader at an appropriate nanometer wavelength for absorbance or fluorescence of the produced reagent. […]
KD was calculated based on the following formula: KD=[free IL-18]×[free IL-18BP]/[IL-18/IL-18BP complex] […]

IL-18 [2] = biological target: T1, IL-18; assay: New BIAcore setup: IL-18BP bound to chip, affinity to IL-18; format: binding; details: IL-18BP on BIAcore chip
Excerpt: Following the above KD results obtain by titration, we tested the binding affinity of IL-18BP to IL-18 with a simpler BIAcore setup consisting of binding IL-18BP to the BIAcore chip and then testing its affinity to IL-18. The method setup is the contrary of Kim et al 2000^8, who bound IL-18 to the BIAcore chip with a monoclonal antibody and then tested the affinity of the complex antibody-IL-18 to IL-18BP.

IL-18 [3] = biological target: T1, IL-18; assay: Titration of free IL-18 as a function of IL-18BP level (free IL-18 ELISA); format: binding; details: 400 pg/mL IL-18 in PBS with 5% BSA
Experimental: A constant quantity of recombinant IL-18 was titrated as a function of different and well defined quantities of IL-18BP in order to understand when free IL-18 is not any more detectable. A PBS solution of 400 pg/mL IL-18 supplemented by 5% BSA was spiked with defined quantities of IL-18BP ranging from 0 to 10′000 pg/mL. The molar ratios were calculated according to the respective molecular weight of IL-18 and IL-18BP. The free IL-18 detection was performed with ELISA using IL-18BP for IL-18 as described above. […] In contrast, when molar ratio is lower than 15, free IL-18 is easily detectable.

[4] = tested on: total cell infiltration in the lung airway space; assay: Exacerbation/tobacco smoke mouse model: total cell infiltration in lung airway space (BALF); format: in vivo, C57BL/6J mice
Experimental: (§1) The aim of the study was to determine the effect of IL-18BP, administered at three dose levels, by the sub-cutaneous route, on Polyinosinic:polycytidylic acid-induced exacerbation of tobacco-smoke induced pulmonary inflammation, in C57BL/6J mice. High level of dexamethasone, dosed orally, was included in the study as a reference agent.
(§2) Mice received either vehicle (PBS) or IL-18BP. IL-18BP was given subcutaneously to 3 groups of animals respectively at 1, 3 or 10 mg/kg 2 h prior to the initial tobacco smoke exposure from Day 1 to Day 4. Mice received orally either vehicle or dexamethasone (10 mg/kg) 1 h prior to each twice daily exposure. Mice received by intranasal administration either the vehicle or Polyinosinic:polycytidylic acid (2 mg/kg) 2 h prior to the initial air or tobacco smoke exposure on Day 4 to induce lung inflammation exacerbation. Tobacco smoke exposure was performed during the morning and afternoon as follow: Day 1 for 15 min, Day 2 for 25 min, Day 3 for 30 min and Day 4 for 30 min.
(§3) Following the above treatments, animals were terminally anaesthetised on Day 5. After that, a blood sample was taken via the sub-clavian artery (plasma) and the animals were bronchoalveloar lavaged with 3×0.4 ml of PBS for further cellular and cytokine/mediator analysis. […] Cells recovered from the BALF were counted using the Sysmex cell counter.

[5] = tested on: neutrophil infiltration in the lung airway space; assay: Exacerbation/tobacco smoke mouse model: neutrophil infiltration in lung airway space; format: in vivo, C57BL/6J mice
Experimental: as §1, §2, §3

G-CSF = assay: Exacerbation/tobacco smoke mouse model: G-CSF in BALF by ELISA; format: in vivo, C57BL/6J mice; details: three tested doses 1, 3, 10 mg/kg s.c., day 5, FIG. 9
Experimental: as §1
as §2, with “Tobacco smoke exposure was performed during the morning and afternoon as follow: Day 1 for 15 min, Day 2 for 25 min, Day 3 for 30 min and Day 4 for 30 min.” left out
Following the above treatments, animals were terminally anaesthetised on Day 5. […] Cells recovered from the BALF were counted using the Sysmex cell counter.
G-CSF is well acknowledged as key cytokine stimulating the survival, proliferation, differentiation, and function of neutrophil precursors and mature neutrophils. […] The presence of G-CSF in the BALF was monitored with a commercially available ELISA kit.

[6] = Exacerbation/tobacco smoke mouse model: weight loss and tolerability; format: in vivo, C57BL/6J mice
Experimental: as §1, §2
As an example, weight loss was mitigated by IL-18BP even though both Students t-test and ANOVA statistical analyses were not significant (see FIG. 10). A large majority of mice receiving 3 and 10 mg/kg IL-18BP lost respectively 6-7% weight in contrast to the control exposed to tobacco smoke and p[I:C] that lost about 9%.

IL-18 [7] = biological target: T1, IL-18; details: cited from earlier work

B1: IL-18BP: IL-18 Binding Protein, naturally occurring IL-18 antagonist, as shown in SEQ ID NO: 7 (protein)
chain: TPVSQTTTAATASVRSTKDPCPSQPPVFPAAKQCPALEVTWPEVEVPLNGTLSLSCVACSRFPNFSILYWLGNGSFIEHLPGRLWEGSTSRERGSTGTQLCKALVLEQLTPALHSTNFSCVLVDPEQVVQRHVVLAQLWAGLRATLPPTQEALPSSHSSPQQQG
modifications: IL-18 binding protein
For B1, the Kd (IL-18 [1]; PBS supplemented by 5% BSA diluent) was 0.035 nM, the Kd (IL-18 [1]; serum diluent (healthy volunteer sera depleted in endogenous IL-18BP)) was 0.05 nM and the Ka (IL-18 [2]) was 5.3 ± 1.2 10^+5/Ms. For the same molecule, the “IL-18BP concentration at which 400 pg/mL IL-18 detection is near background” value (IL-18 [3]) was no less than 6000 pg/mL, the “Exacerbated inflammation inhibition (total cell infiltration)” value ([4]; 10 mg/kg s.c., day 5, FIG. 6) was “clear and statistically relevant efficacy” and the “Mitigation of total cell infiltration in the lung” value ([4]; 3 and 10 mg/kg s.c., day 5, compared to dexamethasone, FIG. 5) was “statistically valuable efficacy”. For the same molecule, the “Inhibition of neutrophil infiltration” value ([5]; 10 mg/kg s.c., day 5, FIG. 8) was “best statistical efficacy”, the “Inhibition of neutrophil infiltration” value ([5]; 3 and 10 mg/kg s.c., day 5, FIG. 7) was “statistically valuable efficacy” and the “Mitigation of G-CSF release in the lung airways” value (G-CSF) was “statistically relevant effect”. For the same molecule, the Weight loss ([6]; 3 and 10 mg/kg s.c., large majority of mice, day 5) was 6-7%, the Tolerability ([6]; exacerbation/tobacco smoke mouse model) was “well tolerated” and the Kd (IL-18 [7]; BIAcore, literature, read-out: KD reported in the literature (Kim et al 2000)) was 0.4 nM. The Kd (IL-18 [7]; used in Law of Mass Action calculation, read-out: Dissociation constant as calculated by Kim et al 2000) was 0.4 nM.
